In paper PMC6907347:

Target: Aβ_(1–40) fibrils (amyloid β peptide 1–40, fibrillar form) (UniProt P05067)
Assay: SPR; BIAcore 3000, CM5 chip; Aβ 1–40 fibrils immobilised by amine coupling at 2000 RU; ApoE4 injected at 20 μL/min until saturation; degassed PBS pH 7.4, 25 °C

Aβ_(1–40) fibrils (amyloid β peptide 1–40, fibrillar form), sequence (P05067 672-711): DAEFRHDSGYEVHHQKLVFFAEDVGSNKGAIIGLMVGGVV

Q: “recombinant human ApoE4 (Apolipoprotein E, ε4 allele) (from UniProt P02649 19-317) (natural protein)” was tested. Which Kd did it give?
A: Its Kd is 5 nM.
